Source: patent US20240409645A1 (DUALYX, published 2024)
Where two headings read alike, the source gives them in different places. One block for each binder: values may come before it.

Assays:
[1] = molecular target: T1, human IL-2 receptor (IL-2Rα/IL-2Rβ/γc) (human, UniProt P01589 22-272; P14784 27-551; P31785 23-369); assay: cell-based or functional assay
T1 sequence 1: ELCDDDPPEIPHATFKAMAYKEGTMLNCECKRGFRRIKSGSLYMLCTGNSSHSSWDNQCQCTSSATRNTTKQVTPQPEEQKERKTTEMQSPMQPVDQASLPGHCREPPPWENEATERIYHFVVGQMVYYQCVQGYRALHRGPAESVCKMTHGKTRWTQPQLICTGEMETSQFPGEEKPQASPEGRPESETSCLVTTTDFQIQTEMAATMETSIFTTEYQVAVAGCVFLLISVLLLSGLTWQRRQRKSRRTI
T1 sequence 2: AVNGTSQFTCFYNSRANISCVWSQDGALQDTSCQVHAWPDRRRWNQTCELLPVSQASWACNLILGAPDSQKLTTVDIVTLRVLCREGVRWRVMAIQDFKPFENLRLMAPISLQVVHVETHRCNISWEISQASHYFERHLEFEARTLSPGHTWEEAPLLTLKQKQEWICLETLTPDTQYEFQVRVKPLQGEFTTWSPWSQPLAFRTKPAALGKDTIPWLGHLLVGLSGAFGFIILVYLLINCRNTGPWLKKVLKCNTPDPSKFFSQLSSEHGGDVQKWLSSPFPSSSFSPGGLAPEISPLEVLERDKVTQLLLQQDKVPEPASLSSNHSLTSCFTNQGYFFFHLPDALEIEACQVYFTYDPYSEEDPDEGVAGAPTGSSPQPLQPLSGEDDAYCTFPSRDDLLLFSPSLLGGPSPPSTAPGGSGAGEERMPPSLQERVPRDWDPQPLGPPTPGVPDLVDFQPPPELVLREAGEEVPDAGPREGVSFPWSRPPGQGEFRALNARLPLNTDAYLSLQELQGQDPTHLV
T1 sequence 3: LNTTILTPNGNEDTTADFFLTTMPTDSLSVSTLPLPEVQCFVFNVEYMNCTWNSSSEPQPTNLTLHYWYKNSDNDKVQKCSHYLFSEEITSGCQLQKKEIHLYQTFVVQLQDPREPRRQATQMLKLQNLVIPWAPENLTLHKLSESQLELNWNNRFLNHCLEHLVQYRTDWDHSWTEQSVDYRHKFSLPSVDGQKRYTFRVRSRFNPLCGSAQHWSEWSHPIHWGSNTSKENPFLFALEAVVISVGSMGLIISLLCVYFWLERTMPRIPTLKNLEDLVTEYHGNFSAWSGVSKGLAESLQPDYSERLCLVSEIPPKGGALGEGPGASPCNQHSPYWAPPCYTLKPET

[2] = molecular target: T1, human IL-2 receptor (IL-2Rα/IL-2Rβ/γc); assay: cell-based or functional assay; remark: listed apart in the source

B3: DC00050 (other)
chain 1: QVQLVESGGGLVQPGGSLRLSCATSGFTFRNNFMSWVRQAPGKGLEWVSTISYGGESTTYAESVKGRFTISRDNAKNTLYLQMNNLKPEDTAVYYCAKATSYDSIRSGSRGQGTQVTVSSGGGGSGGGGSGGGGSQVQLVESGGGLVQPGGSLRLSCATSGFTFRNNFMSWVRQAPGKGLEWVSTISYGGESTTYAESVKGRFTISRDNAKNTLYLQMNNLKPEDTAVYYCAKATSYDSIRSGSRGQGTQVTVSSDKTHTCPPCPAPEAAGGPSVFLFPPKPKDTLMISRTPEVTCVVVDVSHEDPEVKFNWYVDGVEVHNAKTKPREEQYNSTYRVVSVLTVLHQDWLNGKEYKCKVSNKALGAPIEKTISKAKGQPREPQVYTLPPSRDELTKNQVSLTCLVKGFYPSDIAVEWESNGQPENNYKTTPPVLDSDGSFLLYSKLTVDKSRWQQGNVFSCSVMHEALHNHYTQKSLSLSPGK
chain 2: QVQLVESGGGLVQPGGSLRLSCATSGFTFRNNFMSWVRQAPGKGLEWVSTISYGGESTTYAESVKGRFTISRDNAKNTLYLQMNNLKPEDTAVYYCAKATSYDSIRSGSRGQGTQVTVSSGGGGSGGGGSGGGGSEVQLVESGGGLVQTGGSLRLSCAASGGTFSRDAMAWFRQVPGKEREFVALISWSGATTNYADSVKGRFAISRDNGKNTVYLQMNRLKPADTAIYYCAADRRPMGSRSYFEPTEYDDWGQGTQVTVSSGGGGSGGGGSGGGGSQVQLVESGGGLVQAGGSLTLSCAAPGRTFGTDVVGWFRQAPGKEREFVASISRSGDGIYYDDSVKGRFTISRNNAWNTVNLQMNSLKVEDTAVYYCAAGDGWSTYDYWGQGTQVTVSSGGGGSGGGGSGGGGSDKTHTCPPCPAPEAAGGPSVFLFPPKPKDTLMISRTPEVTCVVVDVSHEDPEVKFNWYVDGVEVHNAKTKPREEQYNSTYRVVSVLTVLHQDWLNGKEYKCKVSNKALGAPIEKTISKAKGQPREPQVYTLPPSRDELTKNQVSLTCLVKGFYPSDIAVEWESNGQPENNYKTTPPVLDSDGSFFLYSRLTVDKSRWQQGNVFSCSVMHEALHNHYTQKSLSLSPGK
EC50 (nM) pSTAT5, NK, human PBMCs [2]: 0.0326 nM | EC50 (nM) pSTAT5, Treg, human PBMCs [2]: 0.00134 nM | Fold Max signal (% pSTAT5+) Treg/NK [2]: 7 fold | Max signal (% pSTAT5+), NK [2]: 8 % pSTAT5+ | Max signal (% pSTAT5+), Treg [2]: 56 % pSTAT5+ | fold EC50 NK/Treg [2]: 24 fold

B4: DC00051 (other)
chain 1: B3 chain 1
chain 2: QVQLVESGGGLVQAGGSLTLSCAAPGRTFGTDVVGWFRQAPGKEREFVASISRSGDGIYYDDSVKGRFTISRNNAWNTVNLQMNSLKVEDTAVYYCAAGDGWSTYDYWGQGTQVTVSSGGGGSGGGGSGGGGSEVQLVESGGGLVQTGGSLRLSCAASGGTFSRDAMAWFRQVPGKEREFVALISWSGATTNYADSVKGRFAISRDNGKNTVYLQMNRLKPADTAIYYCAADRRPMGSRSYFEPTEYDDWGQGTQVTVSSGGGGSGGGGSGGGGSQVQLVESGGGLVQPGGSLRLSCATSGFTFRNNFMSWVRQAPGKGLEWVSTISYGGESTTYAESVKGRFTISRDNAKNTLYLQMNNLKPEDTAVYYCAKATSYDSIRSGSRGQGTQVTVSSDKTHTCPPCPAPEAAGGPSVFLFPPKPKDTLMISRTPEVTCVVVDVSHEDPEVKFNWYVDGVEVHNAKTKPREEQYNSTYRVVSVLTVLHQDWLNGKEYKCKVSNKALGAPIEKTISKAKGQPREPQVYTLPPSRDELTKNQVSLTCLVKGFYPSDIAVEWESNGQPENNYKTTPPVLDSDGSFFLYSRLTVDKSRWQQGNVFSCSVMHEALHNHYTQKSLSLSPGK
EC50 (nM) pSTAT5, NK, human PBMCs [2]: 0.191 nM | EC50 (nM) pSTAT5, Treg, human PBMCs [2]: < 0.1 pM | Fold Max signal (% pSTAT5+) Treg/NK [2]: 3 fold | Max signal (% pSTAT5+), NK [2]: 33 % pSTAT5+ | Max signal (% pSTAT5+), Treg [2]: 96 % pSTAT5+ | fold EC50 NK/Treg [2]: > 1910 fold

B5: DC00052 (other)
chain 1: B3 chain 1
chain 2: QVQLVESGGGLVQAGGSLTLSCAAPGRTFGTDVVGWFRQAPGKEREFVASISRSGDGIYYDDSVKGRFTISRNNAWNTVNLQMNSLKVEDTAVYYCAAGDGWSTYDYWGQGTQVTVSSGGGGSGGGGSGGGGSQVQLVESGGGLVQPGGSLRLSCATSGFTFRNNFMSWVRQAPGKGLEWVSTISYGGESTTYAESVKGRFTISRDNAKNTLYLQMNNLKPEDTAVYYCAKATSYDSIRSGSRGQGTQVTVSSGGGGSGGGGSGGGGSEVQLVESGGGLVQTGGSLRLSCAASGGTFSRDAMAWFRQVPGKEREFVALISWSGATTNYADSVKGRFAISRDNGKNTVYLQMNRLKPADTAIYYCAADRRPMGSRSYFEPTEYDDWGQGTQVTVSSGGGGSGGGGSGGGGSDKTHTCPPCPAPEAAGGPSVFLFPPKPKDTLMISRTPEVTCVVVDVSHEDPEVKFNWYVDGVEVHNAKTKPREEQYNSTYRVVSVLTVLHQDWLNGKEYKCKVSNKALGAPIEKTISKAKGQPREPQVYTLPPSRDELTKNQVSLTCLVKGFYPSDIAVEWESNGQPENNYKTTPPVLDSDGSFFLYSRLTVDKSRWQQGNVFSCSVMHEALHNHYTQKSLSLSPGK
EC50 (nM) pSTAT5, NK, human PBMCs [2]: 0.0812 nM | EC50 (nM) pSTAT5, Treg, human PBMCs [2]: 0.00403 nM | Fold Max signal (% pSTAT5+) Treg/NK [2]: 8 fold | Max signal (% pSTAT5+), NK [2]: 9 % pSTAT5+ | Max signal (% pSTAT5+), Treg [2]: 79 % pSTAT5+ | fold EC50 NK/Treg [2]: 20 fold

The next lines start with the values.

EC50 (nM) pSTAT5, NK, human PBMCs [1]: 0.0032 nM | EC50 (nM) pSTAT5, Treg, human PBMCs [1]: < 0.1 pM | Fold Max signal (% pSTAT5+) Treg/NK [1]: 12 fold | Max signal (% pSTAT5+), NK [1]: 4.31 % pSTAT5+ | Max signal (% pSTAT5+), Treg [1]: 53.1 % pSTAT5+ | fold EC50 NK/Treg [1]: > 32 fold
B1: DC00075 (other)
chain 1: QVQLVESGGGLVQAGGSLRLSCAASGIPFDNYAMGWFRQAPGKEREFVAARDLEGIITRYGDSVKGRFTISRGNAKNTVFLQMNSLKPEDTAVYYCAARDGGVVAGSRSSAQYNYWGQGTQVTVSSDKTHTCPPCPAPEAAGGPSVFLFPPKPKDTLMISRTPEVTCVVVDVSHEDPEVKFNWYVDGVEVHNAKTKPREEQYNSTYRVVSVLTVLHQDWLNGKEYKCKVSNKALGAPIEKTISKAKGQPREPQVYTLPPSRDELTKNQVSLTCLVKGFYPSDIAVEWESNGQPENNYKTTPPVLDSDGSFLLYSKLTVDKSRWQQGNVFSCSVMHEALHNHYTQKSLSLSPGK
chain 2: EVQLVESGGGLVQTGGSLRLSCAASGGTFSRDAMAWFRQVPGKEREFVALISWSGATTNYADSVKGRFAISRDNGKNTVYLQMNRLKPADTAIYYCAADRRPMGSRSYFEPTEYDDWGQGTQVTVSSGGGGSGGGGSGGGGSQVQLVESGGGLVQPGGSLRLSCATSGFTFRNNFMSWVRQAPGKGLEWVSTISYGGESTTYAESVKGRFTISRDNAKNTLYLQMNNLKPEDTAVYYCAKATSYDSIRSGSRGQGTQVTVSSGGGGSGGGGSGGGGSQVQLVESGGGLVQAGGSLTLSCAAPGRTFGTDVVGWFRQAPGKEREFVASISRSGDGIYYDDSVKGRFTISRNNAWNTVNLQMNSLKVEDTAVYYCAAGDGWSTYDYWGQGTQVTVSSGGGGSGGGGSGGGGSDKTHTCPPCPAPEAAGGPSVFLFPPKPKDTLMISRTPEVTCVVVDVSHEDPEVKFNWYVDGVEVHNAKTKPREEQYNSTYRVVSVLTVLHQDWLNGKEYKCKVSNKALGAPIEKTISKAKGQPREPQVYTLPPSRDELTKNQVSLTCLVKGFYPSDIAVEWESNGQPENNYKTTPPVLDSDGSFFLYSRLTVDKSRWQQGNVFSCSVMHEALHNHYTQKSLSLSPGK

EC50 (nM) pSTAT5, NK, human PBMCs [1]: 2.42 nM | EC50 (nM) pSTAT5, Treg, human PBMCs [1]: < 0.1 pM | Fold Max signal (% pSTAT5+) Treg/NK [1]: 4 fold | Max signal (% pSTAT5+), NK [1]: 14 % pSTAT5+ | Max signal (% pSTAT5+), Treg [1]: 59.4 % pSTAT5+ | fold EC50 NK/Treg [1]: > 24200 fold
B2: DC00076 (other)
chain 1: B1 chain 1
chain 2: QVQLVESGGGLVQPGGSLRLSCATSGFTFRNNFMSWVRQAPGKGLEWVSTISYGGESTTYAESVKGRFTISRDNAKNTLYLQMNNLKPEDTAVYYCAKATSYDSIRSGSRGQGTQVTVSSGGGGSGGGGSGGGGSQVQLVESGGGLVQAGGSLTLSCAAPGRTFGTDVVGWFRQAPGKEREFVASISRSGDGIYYDDSVKGRFTISRNNAWNTVNLQMNSLKVEDTAVYYCAAGDGWSTYDYWGQGTQVTVSSGGGGSGGGGSGGGGSEVQLVESGGGLVQTGGSLRLSCAASGGTFSRDAMAWFRQVPGKEREFVALISWSGATTNYADSVKGRFAISRDNGKNTVYLQMNRLKPADTAIYYCAADRRPMGSRSYFEPTEYDDWGQGTQVTVSSGGGGSGGGGSGGGGSDKTHTCPPCPAPEAAGGPSVFLFPPKPKDTLMISRTPEVTCVVVDVSHEDPEVKFNWYVDGVEVHNAKTKPREEQYNSTYRVVSVLTVLHQDWLNGKEYKCKVSNKALGAPIEKTISKAKGQPREPQVYTLPPSRDELTKNQVSLTCLVKGFYPSDIAVEWESNGQPENNYKTTPPVLDSDGSFFLYSRLTVDKSRWQQGNVFSCSVMHEALHNHYTQKSLSLSPGK
